Measurements taken from US20240374644A1.

Molecular target: CD8 on peripheral blood mononuclear cells (human)
Test: flow cytometry on PBMCs, anti-GST antibody

Chain of CD8 on peripheral blood mononuclear cells (human) (P01732 22-235, chain 1 of 2): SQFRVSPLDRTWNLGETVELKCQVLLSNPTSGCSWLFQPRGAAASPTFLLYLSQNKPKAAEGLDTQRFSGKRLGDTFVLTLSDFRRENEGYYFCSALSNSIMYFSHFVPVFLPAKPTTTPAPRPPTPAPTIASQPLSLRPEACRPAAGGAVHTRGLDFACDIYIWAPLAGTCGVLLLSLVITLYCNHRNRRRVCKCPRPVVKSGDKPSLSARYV
Chain of CD8 on peripheral blood mononuclear cells (human) (P10966 22-210, chain 2 of 2, further chain): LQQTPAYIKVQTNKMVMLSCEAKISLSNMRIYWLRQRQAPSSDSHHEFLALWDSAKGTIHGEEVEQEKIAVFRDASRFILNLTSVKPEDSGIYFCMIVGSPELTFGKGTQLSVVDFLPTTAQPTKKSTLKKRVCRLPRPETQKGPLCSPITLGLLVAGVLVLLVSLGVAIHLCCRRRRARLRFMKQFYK

- percentage of peripheral blood mononuclear cells positive (anti-GST): 48.8 to 55.2%
Substance: CD8 BiTE (K8Bi), anti-HERV-K 6H5 scFv linked to anti-CD8 (OKT8) scFv (bispecific antibody)
